From article doi:10.1101/2025.07.11.664400 (bioRxiv, 2025)

T1: RecB (E. coli, UniProt P08394 1-1180)
T1 sequence: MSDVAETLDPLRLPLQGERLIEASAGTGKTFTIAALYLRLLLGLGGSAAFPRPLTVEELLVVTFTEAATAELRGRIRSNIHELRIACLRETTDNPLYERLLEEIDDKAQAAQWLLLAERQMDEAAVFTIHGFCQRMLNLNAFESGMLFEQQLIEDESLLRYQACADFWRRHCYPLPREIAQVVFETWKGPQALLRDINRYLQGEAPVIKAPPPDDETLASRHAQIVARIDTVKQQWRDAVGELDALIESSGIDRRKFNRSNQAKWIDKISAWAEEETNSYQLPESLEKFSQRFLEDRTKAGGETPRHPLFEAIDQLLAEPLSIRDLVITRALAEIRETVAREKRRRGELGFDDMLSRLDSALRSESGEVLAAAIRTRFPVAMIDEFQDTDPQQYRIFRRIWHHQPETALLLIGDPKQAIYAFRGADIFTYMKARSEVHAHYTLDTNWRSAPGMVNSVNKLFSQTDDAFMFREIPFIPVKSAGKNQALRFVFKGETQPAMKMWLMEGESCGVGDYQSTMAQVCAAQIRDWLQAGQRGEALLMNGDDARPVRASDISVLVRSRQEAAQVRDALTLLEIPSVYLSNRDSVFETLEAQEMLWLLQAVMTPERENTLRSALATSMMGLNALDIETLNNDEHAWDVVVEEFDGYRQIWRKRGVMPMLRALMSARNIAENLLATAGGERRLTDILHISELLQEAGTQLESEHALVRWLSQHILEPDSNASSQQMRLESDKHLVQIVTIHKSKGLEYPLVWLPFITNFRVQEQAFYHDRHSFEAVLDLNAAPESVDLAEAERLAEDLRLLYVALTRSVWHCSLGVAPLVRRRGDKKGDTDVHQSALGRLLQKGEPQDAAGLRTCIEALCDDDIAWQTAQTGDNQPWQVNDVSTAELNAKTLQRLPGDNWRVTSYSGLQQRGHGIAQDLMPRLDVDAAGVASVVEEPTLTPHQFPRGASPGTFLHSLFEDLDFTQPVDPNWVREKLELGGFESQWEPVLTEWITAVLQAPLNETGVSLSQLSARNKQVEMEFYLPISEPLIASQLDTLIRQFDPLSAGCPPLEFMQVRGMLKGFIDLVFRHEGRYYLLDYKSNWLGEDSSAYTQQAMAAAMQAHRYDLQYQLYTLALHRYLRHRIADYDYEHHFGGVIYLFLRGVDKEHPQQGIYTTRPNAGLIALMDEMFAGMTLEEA

B1: RecC (natural protein)
chain: MLRVYHSNRLDVLEALMEFIVERERLDDPFEPEMILVQSTGMAQWLQMTLSQKFGIAANIDFPLPASFIWDMFVRVLPEIPKESAFNKQSMSWKLMTLLPQLLEREDFTLLRHYLTDDSDKRKLFQLSSKAADLFDQYLVYRPDWLAQWETGHLVEGLGEAQAWQAPLWKALVEYTHQLGQPRWHRANLYQRFIETLESATTCPPGLPSRVFICGISALPPVYLQALQALGKHIEIHLLFTNPCRYYWGDIKDPAYLAKLLTRQRRHSFEDRELPLFRDSENAGQLFNSDGEQDVGNPLLASWGKLGRDYIYLLSDLESSQELDAFVDVTPDNLLHNIQSDILELENRAVAGVNIEEFSRSDNKRPLDPLDSSITFHVCHSPQREVEVLHDRLLAMLEEDPTLTPRDIIVMVADIDSYSPFIQAVFGSAPADRYLPYAISDRRARQSHPVLEAFISLLSLPDSRFVSEDVLALLDVPVLAARFDITEEGLRYLRQWVNESGIRWGIDDDNVRELELPATGQHTWRFGLTRMLLGYAMESAQGEWQSVLPYDESSGLIAELVGHLASLLMQLNIWRRGLAQERPLEEWLPVCRDMLNAFFLPDAETEAAMTLIEQQWQAIIAEGLGAQYGDAVPLSLLRDELAQRLDQERISQRFLAGPVNICTLMPMRSIPFKVVCLLGMNDGVYPRQLAPLGFDLMSQKPKRGDRSRRDDDRYLFLEALISAQQKLYISYIGRSIQDNSERFPSVLVQELIDYIGQSHYLPGDEALNCDESEARVKAHLTCLHTRMPFDPQNYQPGERQSYAREWLPAASQAGKAHSEFVQPLPFTLPETVPLETLQRFWAHPVRAFFQMRLQVNFRTEDSEIPDTEPFILEGLSRYQINQQLLNALVEQDDAERLFRRFRAAGDLPYGAFGEIFWETQCQEMQQLADRVIACRQPGQSMEIDLACNGVQITGWLPQVQPDGLLRWRPSLLSVAQGMQLWLEHLVYCASGGNGESRLFLRKDGEWRFPPLAAEQALHYLSQLIEGYREGMSAPLLVLPESGGAWLKTCYDAQNDAMLDDDSTLQKARTKFLQAYEGNMMVRGEGDDIWYQRLWRQLTPETMEAIVEQSQRFLLPLFRFNQS
B2: 3'-dT4 (dsDNA)
DNA 1: CCATGGCTCCTGAGCTAGCTGCAGTAGCCTAAAGGATGAAACTAGGATCTTATGCTCCAGTTTT
DNA 2: CTGGAGCATAAGATCCTAGTTTCATCCTTTAGGCTACTGCAGCTAGCTCAGGAGCCATGGTTTT
B3: RecB^ΔNuc (RecB with the nuclease domain, residues 930-1180, deleted) (domain or fragment)
chain: MSDVAETLDPLRLPLQGERLIEASAGTGKTFTIAALYLRLLLGLGGSAAFPRPLTVEELLVVTFTEAATAELRGRIRSNIHELRIACLRETTDNPLYERLLEEIDDKAQAAQWLLLAERQMDEAAVFTIHGFCQRMLNLNAFESGMLFEQQLIEDESLLRYQACADFWRRHCYPLPREIAQVVFETWKGPQALLRDINRYLQGEAPVIKAPPPDDETLASRHAQIVARIDTVKQQWRDAVGELDALIESSGIDRRKFNRSNQAKWIDKISAWAEEETNSYQLPESLEKFSQRFLEDRTKAGGETPRHPLFEAIDQLLAEPLSIRDLVITRALAEIRETVAREKRRRGELGFDDMLSRLDSALRSESGEVLAAAIRTRFPVAMIDEFQDTDPQQYRIFRRIWHHQPETALLLIGDPKQAIYAFRGADIFTYMKARSEVHAHYTLDTNWRSAPGMVNSVNKLFSQTDDAFMFREIPFIPVKSAGKNQALRFVFKGETQPAMKMWLMEGESCGVGDYQSTMAQVCAAQIRDWLQAGQRGEALLMNGDDARPVRASDISVLVRSRQEAAQVRDALTLLEIPSVYLSNRDSVFETLEAQEMLWLLQAVMTPERENTLRSALATSMMGLNALDIETLNNDEHAWDVVVEEFDGYRQIWRKRGVMPMLRALMSARNIAENLLATAGGERRLTDILHISELLQEAGTQLESEHALVRWLSQHILEPDSNASSQQMRLESDKHLVQIVTIHKSKGLEYPLVWLPFITNFRVQEQAFYHDRHSFEAVLDLNAAPESVDLAEAERLAEDLRLLYVALTRSVWHCSLGVAPLVRRRGDKKGDTDVHQSALGRLLQKGEPQDAAGLRTCIEALCDDDIAWQTAQTGDNQPWQVNDVSTAELNAKTLQRLPGDNWRVTSYSGLQQRGHGIAQDLMPRLDVDAA
B4: 3'-dT2 (dsDNA)
DNA 1: CCATGGCTCCTGAGCTAGCTGCAGTAGCCTAAAGGATGAAACTAGGATCTTATGCTCCAGTT
DNA 2: CTGGAGCATAAGATCCTAGTTTCATCCTTTAGGCTACTGCAGCTAGCTCAGGAGCCATGGTT
B5: RecD (natural protein)
chain: MKLQKQLLEAVEHKQLRPLDVQFALTVAGDEHPAVTLAAALLSHDAGEGHVCLPLSRLENNEASHPLLATCVSEIGELQNWEECLLASQAVSRGDEPTPMILCGDRLYLNRMWCNERTVARFFNEVNHAIEVDEALLAQTLDKLFPVSDEINWQKVAAAVALTRRISVISGGPGTGKTTTVAKLLAALIQMADGERCRIRLAAPTGKAAARLTESLGKALRQLPLTDEQKKRIPEDASTLHRLLGAQPGSQRLRHHAGNPLHLDVLVVDEASMIDLPMMSRLIDALPDHARVIFLGDRDQLASVEAGAVLGDICAYANAGFTAERARQLSRLTGTHVPAGTGTEAASLRDSLCLLQKSYRFGSDSGIGQLAAAINRGDKTAVKTVFQQDFTDIEKRLLQSGEDYIAMLEEALAGYGRYLDLLQARAEPDLIIQAFNEYQLLCALREGPFGVAGLNERIEQFMQQKRKIHRHPHSRWYEGRPVMIARNDSALGLFNGDIGIALDRGQGTRVWFAMPDGNIKSVQPSRLPEHETTWAMTVHKSQGSEFDHAALILPSQRTPVVTRELVYTAVTRARRRLSLYADERILSAAIATRTERRSGLAALFSSRE

Legend:
RecB = target: T1, RecB; experiment: AUC
RecBCD = RecBCD (Escherichia coli, UniProt P08394;P07648;P04993 1-1180;1-1122;1-608); experiment: fluorescence competition
RecBΔNucCD = RecBΔNucCD (Escherichia coli, UniProt P08394;P07648;P04993 1-929;1-1122;1-608); experiment: fluorescence competition
RecC = target: B1; experiment: AUC

binding result (RecB) | binding result (RecC) | Binder | Ka (RecBCD) [M⁻¹] | Ka (RecBΔNucCD) [M⁻¹]
binds | – | B1 | – | –
– | – | B2 | 4.7e+07 | 3.3e+08
– | binds | B3 | – | –
– | – | B4 | 2.1e+07 | 9.6e+07
– | binds | B5 | – | –
